Test results from patent US20140179896A1 (published 2014).

molecular target: T1, human vascular endothelial growth factor receptor-2 Fc chimera (KDR-Fc) (human, UniProt P35968 20-764); assay: radioactive equilibrium binding, 1 nM KDR-Fc
T1 construct: range 1-764; also called human VEGFR-2; VEGF-R2-Fc; not shown: human IgG1 Fc
Procedure: To prepare ³⁵S-labeled binding proteins for analysis, mRNA was prepared as described above for RNA-protein fusion production but the linker ligation step was omitted. The mRNA was expressed using rabbit reticulocyte lysate translation kit (Ambion) in the presence of ³⁵S-labeled Met at 30° C. for 1 hour. Expressed protein was purified on M2-agarose Flag beads (Sigma) as described above. This procedure produced the encoded protein without the nucleic acid tail. In a direct binding assay, VEGF-R2-Fc fusions in concentrations ranging from 0 to 200 nM were added to a constant concentration of the purified protein (0.2 or 0.5 nM) and incubated at 30° C. for 1 hour in buffer B. The receptor-binder complexes were captured using Protein A magnetic beads for another 10 minutes at room temperature using a Kingfisher™ The beads were washed with six reaction volumes of buffer B. The protein was eluted from the beads with 100 μL of 0.1 M KOH. […] of the reaction mixture and elution were dried onto a LumaPlate-96 (Packard) and the amount of ³⁵S on the plate was measured using a TopCount NXT instrument (Packard). The amount of fibronectin-based scaffold protein bound to the target was estimated as a percent of radioactivity eluted from Protein A magnetic beads compare to radioactivity in the reaction mixture. Nonspecific binding of fibronectin-based scaffold proteins to the beads was determined by measuring binding in the absence of KDR-Fc and represented less than 1-2% of the input. Specific binding was obtained through subtraction of nonspecific binding from total binding. Data was analyzed using the GraphPad Prizm software (GraphPad Software, Inc, San Diego, Calif.), fitted using a one site, non-linear binding equation.

T1 sequence (P35968 20-764 limits assumed, change not shown, form in doubt): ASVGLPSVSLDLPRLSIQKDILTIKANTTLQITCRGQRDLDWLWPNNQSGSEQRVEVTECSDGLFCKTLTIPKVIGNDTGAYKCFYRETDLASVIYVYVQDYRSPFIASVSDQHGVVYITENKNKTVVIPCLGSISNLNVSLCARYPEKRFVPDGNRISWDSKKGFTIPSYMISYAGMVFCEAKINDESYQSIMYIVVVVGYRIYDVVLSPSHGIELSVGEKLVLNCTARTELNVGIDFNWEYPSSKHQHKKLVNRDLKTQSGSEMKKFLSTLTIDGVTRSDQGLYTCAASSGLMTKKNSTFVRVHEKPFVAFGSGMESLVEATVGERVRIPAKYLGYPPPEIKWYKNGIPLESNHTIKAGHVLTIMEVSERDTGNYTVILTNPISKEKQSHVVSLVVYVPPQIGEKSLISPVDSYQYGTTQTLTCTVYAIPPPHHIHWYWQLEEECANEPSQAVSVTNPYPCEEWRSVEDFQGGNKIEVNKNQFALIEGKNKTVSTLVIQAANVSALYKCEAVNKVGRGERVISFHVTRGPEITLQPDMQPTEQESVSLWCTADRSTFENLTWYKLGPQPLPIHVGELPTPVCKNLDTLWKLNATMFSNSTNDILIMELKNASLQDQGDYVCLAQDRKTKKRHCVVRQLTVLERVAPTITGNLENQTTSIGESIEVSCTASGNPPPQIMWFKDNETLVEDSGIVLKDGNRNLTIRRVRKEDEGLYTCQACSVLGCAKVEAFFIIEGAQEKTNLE

Row | Binder | Binding to 1 nM KDR, % [%]
1 | 2′Del E5 PR4 (designed binder, Del 1-8) EVVAATPTSLLISWRHPHFPTRYYRITYGETGGNSPVQEFTVPLQPPTATISGLKPGVDYTITGYAVTEGLNDHELIIPISINYRT | 19
2 | 2′Del F1 PR4 (designed binder, Del 1-8) EVVAATPTSLLISWRHPHFPTRYYRITYGETGGNSPVQEFTVPLQPPTATISGLKPGVDYTITGYAVTRDQYEHELLTPISINYRT | 20
3 | 2′DelB7 PR4 (designed binder, Del 1-8) EVVAATPTSLLISWRHPHFPTRYYRITYGETGGNSPVQEFTVPLQPPTATISGLKPGVDYTITGYAVTVGYNNRELLTPISINYRT | 32
4 | 2′Del E6 PR4 (designed binder, Del 1-8) EVVAATPTSLLISWRHPHFPTRYYRITYGETGGNSPVQEFTVPLQPPTATISGLKPGVDYTITGYAVTMGKNGHELLTPISINYRT | 43
5 | 2′DelA5 PR4 (designed binder, Del 1-8) EVVAATPTSLLISWRHPHFPTRYYRITYGETGGNSPVQEFTVPLQPPTATISGLKPGVDYTITGYAVTWNQNGQELFTPISINYRT | 20
6 | 2′Del F7 PR4 (designed binder, Del 1-8) EVVAATPTSLLISWRHPHFPTRYYRITYGETGGNSPVQEFTVPLQPPTATISGLKPGVDYTITGYAVTLGLRDRELFVPISINYRT | 38
7 | 2′DelE4 PR4 (designed binder, Del 1-8) EVVAATPTSLLISWRHPHFPTRYYRITYGETGGNSPVQEFTVPLQPPTATISGLKPGVDYTITGYAVTVHWNGHELMTPISINYRT | 34
8 | 2′Del F8 PR4 (designed binder, Del 1-8) EVVAATPTSLLISWRHPHFPTRYYRITYGETGGNSPVQEFTVPLQPPTATISGLKPGVDYTITGYAVTAGPGAHELLTPISINYRT | 42
9 | 2′Del H5 PR4 (designed binder, Del 1-8) EVVAATPTSLLISWRHPHFPTRYYRITYGETGGNSPVQEFTVPLQPPTATISGLKPGVDYTITGYAVTLGKDVRELLTPISINYRT | 34
10 | 2′Del H6 PR4 (designed binder, Del 1-8) EVVAATPTSLLISWRHPHFPTRYYRITYGETGGNSPVQEFTVPLQPPTATISGLKPGVDYTITGYAVTTGHHDHELIIPISINYRT | 28
11 | 2′Del G11 PR4 (designed binder, Del 1-8) EVVAATPTSLLISWRHPHFPTRYYRITYGETGGNSPVQEFTVPLQPPTATISGLKPGVDYTITGYAVTGGQMNRVLMTPISINYRT | 22
12 | 2′Del F5 PR4 (designed binder, Del 1-8) EVVAATPTSLLISWRHPHFPTRYYRITYGETGGNSPVQEFTVPLQPPTATISGLKPGVDYTITGYAVTLVHNDRELLTPISINYRT | 22
13 | 2′Del G9 PR4 (designed binder, Del 1-8) EVVAATPTSLLISWRHPHFPTRYYRITYGETGGNSPVQEFTVPLQPPTATISGLKPGVDYTITGYAVTVEQNGRELIIPISINYRT | 33
14 | 2′DelC7 PR4 (designed binder, Del 1-8) EVVAATPTSLLISWRHPHFPTRYYRITYGETGGNSPVQEFTVPLQPPTATISGLKPGVDYTITGYAVTWDQNGHVLLTPISINYRT | 19
15 | 2′DelC3 PR4 (designed binder, Del 1-8) EVVAATPTSLLISWRHPHFPTRYYRITYGETGGNSPVQEFTVPLQPPTATISGLKPGVDYTITGYAVTWAQNGRELLTPISINYRT | 29
16 | 2′Del F11 PR4 (designed binder, Del 1-8) EVVAATPTSLLISWRHPHFPTRYYRITYGETGGNSPVQEFTVPLQPPTATISGLKPGVDYTITGYAVTMGQNDKELITPISINYRT | 27
17 | 2′Del H12 PR4 (designed binder, Del 1-8) EVVAATPTSLLISWRHPHFPTRYYRITYGETGGNSPVQEFTVPLQPPTATISGLKPGVDYTITGYAVTAGGNGHELLTPISINYRT | 24

Continued, values first:

Row | Binding to 1 nM KDR, % [%] | Binder
18 | 34 | 3′A7 PR4 (designed binder, Del 1-8) EVVAATPTSLLISWRHPHFPTRYYRITYGETGGNSPVQEFTVPLQPPTATISGLKPGVDYTITGYAVTLSDSGHALFTPISINYRT
19 | 23 | 3A2 PR3 (designed binder, Del 1-8) EVVAATPTSLLISWRHPHFPTRYYRITYGETGGNSPVQEFTVPLQPPTATISGLKPGVDYTITGYAVTWSQNNRELFTPISINYRT
20 | 19 | 2′DelG5 PR4 (designed binder, Del 1-8) EVVAATPTSLLISWRHPHFPTRYYRITYGETGGNSPVQEFTVPLQPPTATISGLKPGVDYTITGYAVTVGQNNHELLTPISINYRT
21 | 20 | 3C7 PR3 (designed binder, Del 1-8) EVVAATPTSLLISWRHPHFPTRYYRITYGETGGNSPVQEFTVPLQPPTATISGLKPGVDYTITGYAVTRGLNDGELLTPISINYRT
22 | 20 | 3B5 PR3 (designed binder, Del 1-8) EVVAATPTSLLISWRHPHFPTRYYRITYGETGGNSPVQEFTVPLQPPTATISGLKPGVDYTITGYAVTFGQNGHALLTPISINYRT
23 | 16 | 3F10 PR3 (designed binder, Del 1-8) EVVAATPTSLLISWRHPHFPTRYYRITYGETGGNSPVQEFTVPLQPPTATISGLKPGVDYTITGYAVTLAQDDHELLTPISINYRT
24 | 16 | 3C9 PR3 (designed binder, Del 1-8) EVVAATPTSLLISWRHPHFPTRYYRITYGETGGNSPVQEFTVPLQPPTATISGLKPGVDYTITGYAVTLVRNDHELLTPISINYRT
25 | 17 | 3F8 PR3 (designed binder, Del 1-8) EVVAATPTSLLISWRHPHFPTRYYRITYGETGGNSPVQEFTVPLQPPTATISGLKPGVDYTITGYAVTVAQNGHELKTPISINYRT
26 | 24 | 3D12 PR3 (designed binder, Del 1-8) EVVAATPTSLLISWRHPHFPTRYYRITYGETGGNSPVQEFTVPLQPPTATISGLKPGVDYTITGYAVTLGQNDRQLLVPISINYRT
27 | 25 | 3′B1 PR4 (designed binder, Del 1-8) EVVAATPTSLLISWRHPHFPTRYYRITYGETGGNSPVQEFTVPLQPPTATISGLKPGVDYTITGYAVTEARNGRELLTPISINYRT
28 | 20 | 2′DelH9 PR4 (designed binder, Del 1-8) EVVAATPTSLLISWRHPHFPTRYYRITYGETGGNSPVQEFTVPLQPPTATISGLKPGVDYTITGYAVTVGWSGHELFVPISINYRT
29 | 19 | 3′A6 PR4 (designed binder, Del 1-8) EVVAATPTSLLISWRHPHFPTRYYRITYGETGGNSPVQEFTVPLQPPTATISGLKPGVDYTITGYAVTLAQNGHELLTPISINYRT
30 | 17 | 3C3 PR3 (designed binder, Del 1-8) EVVAATPTSLLISWRHPHFPTRYYRITYGETGGNSPVQEFTVPLQPPTATISGLKPGVDYTITGYAVTMEQNGHELFTPISINYRT
31 | 23 | 3A3 PR3 (designed binder, Del 1-8) EVVAATPTSLLISWRHPHFPTRYYRITYGETGGNSPVQEFTVPLQPPTATISGLKPGVDYTITGYAVTLAYNGREIITPISINYRT
32 | 20 | 3G2 PR3 (designed binder, Del 1-8) EVVAATPTSLLISWRHPHFPTRYYRITYGETGGNSPVQEFTVPLQPPTATISGLKPGVDYTITGYAVTFGPSDHVLLTPISINYRT
33 | 17 | 3B4 PR3 (designed binder, Del 1-8) EVVAATPTSLLISWRHPHFPTRYYRITYGETGGNSPVQEFTVPLQPPTATISGLKPGVDYTITGYAVTVGQNEHELLTPISINYRT
34 | 25 | 3′A9 PR4 (designed binder, Del 1-8) EVVAATPTSLLISWRHPHFPTRYYRITYGETGGNSPVQEFTVPLQPPTATISGLKPGVDYTITGYAVTLAHNDRELLTPISINYRT
35 | 27 | 3′A8 PR4 (designed binder, Del 1-8) EVVAATPTSLLISWRHPHFPTRYYRITYGETGGNSPVQEFTVPLQPPTATISGLKPGVDYTITGYAVTVAWDDHELLTPISINYRT
36 | 30 | 2′DelH4 PR4 (designed binder, Del 1-8) EVVAATPTSLLISWRHPHFPTRYYRITYGETGGNSPVQEFTVPLQPPTATISGLKPGVDYTITGYAVTVGPNERMLMTPISINYRT
